Reference: patent publication US20120178124A1, “STEROL SIDE CHAIN-CLEAVING ENZYME PROTEIN AND USE THEREOF” (MITSUBISHI CHEMICAL CORPORATION, priority 2009, published 2012)

Legend:
Format in all cases: biochemical
[1] = Analysis of the optimum pH, conversion of 4-cholesten-3-one by cell-free extract; settings: for Specific activity: 4-cholesten-3-one to progesterone, 30° C., 14 hours
Description: (§1) To 20 ml of the cell suspension prepared in (2) above, 680 μl of X10 Bug Buster (Novagen), 20 μl of Benzonase (Novagen), and 2 ml of 40 mg/ml lysozyme were added, and the obtained mixture was then shaken at 30° C. for 30 minutes to disintegrate the cells. Thereafter, the reaction solution was centrifuged to obtain the cell-free extract. The obtained, approximately 20 ml of cell-free extract was dialyzed against 1 L of Buffer R (20 mM KPB pH 7.4, 20% glycerol) two times, and the deposited precipitate was then removed by centrifugation. The cell-free extract obtained as a supernatant herein was used in the subsequent experiments.
Using the cell-free extract prepared in (3) above, conversion of 4-cholesten-3-one was carried out at various pH values. The reaction solution was prepared, such that 1 ml of Buffer R comprised […] CYP204A1 or […] CYPSS204A, 64 μg/ml spinach-derived ferredoxin, a 0.1 U/ml spinach-derived ferredoxin reductase protein, 3 U/ml glucose dehydrogenase, 60 mM glucose, 50 μg/ml 4-cholesten-3-one, 2 mM NADH, and 2 mM NADPH. Then, 562 μl of 200 mM Buffer having various pH values was added to 1 ml of the reaction solution, so as to adjust the pH of the reaction solution. The reaction was initiated by the addition of NADH and NADPH, and it was carried out at 200 rpm at 30° C. for 14 hours. Thereafter, 1.5 ml of ethyl acetate was added to the reaction solution to terminate the reaction, and extraction was carried out. Then, extraction was carried out again with 0.75 ml of ethyl acetate. The obtained ethyl acetate phase was solidified using evaporator, and the residue was then dissolved in 200.d of methanol. Thereafter, progesterone was detected by HPLC analysis. The enzyme protein activity for conversion of 4-cholesten-3-one to progesterone under various pH conditions is shown in Table 1. The enzyme protein activity was indicated by the amount (g) of progesterone generated per hour per mol of P450.

[2] = pH stability test of cell-free extract; settings: for Relative activity: 140 hr versus 0 hr, 6° C.; for Activity 0 hr: immediately after mixing, reaction 15° C., 4 hours, pH 7.5
Description: as §1
0.5 ml of the cell-free extract prepared in (3) above was mixed with 0.5 ml of 50 mM buffer having various pH values, pH was then measured, and the mixture was then conserved at 6° C. for 140 hours. […] Using the prepared cell-free extracts having various pH values, conversion of 4-cholesten-3-one was carried out. The reaction was carried out, immediately after the enzyme protein solution was mixed with buffers having various pH values and after the mixed solution was conserved for 140 hours, so as to examine the stability. The reaction solution was prepared, such that 1 ml of the buffer comprised an enzyme protein solution of CYP204A1 or CYPSS having various pH values, 64 μg/ml spinach-derived ferredoxin, 0.1 U/ml spinach-derived ferredoxin reductase protein, 3 U/ml glucose dehydrogenase, 60 mM glucose, 50 μg/ml 4-cholesten-3-one, 2 mM NADH, and 2 mM NADPH. To the reaction solution, 562 μl of 200 mM Tris-HCl was added, so as to adjust the reaction solution to pH 7.5. It was confirmed that the reaction solution maintained pH 7.5, even though enzyme protein solutions having various pH values were added thereto. The reaction was initiated by addition of NADH and NADPH, and it was carried out at 200 rpm at 15° C. for 4 hours. Thereafter, 1.5 ml of ethyl acetate was added to the reaction solution to terminate the reaction, and extraction was carried out. Then, extraction was carried out again with 0.75 ml of ethyl acetate. The obtained ethyl acetate phase was solidified using an evaporator, and the residue was then dissolved in 200 μl of methanol. Thereafter, progesterone was detected by HPLC analysis.

[3] = Thermostability test of cell-free extract; settings: for Relative activity: 140 hr versus 0 hr
Description: as §1
The cell-free extract prepared in (3) above was conserved at various temperature for 140 hours. The conservation temperature was set at 6° C., 10° C., 20° C., 30° C., 37° C., or 45° C. Using the enzyme protein solution before conservation and the sample obtained after conservation for 140 hours, conversion of 4-cholesten-3-one was carried out, and stability was examined. The reaction solution was prepared, such that 1 ml of the buffer comprised an enzyme protein solution of CYP204A1 or CYPSS that had been conserved at each temperature, 64 μg/ml spinach-derived ferredoxin, 0.1 U/ml spinach-derived ferredoxin reductase protein, 3 U/ml glucose dehydrogenase, 60 mM glucose, 50 μg/ml 4-cholesten-3-one, 2 mM NADH, and 2 mM NADPH. The reaction was initiated by addition of NADH and NADPH, and it was carried out at 200 rpm at 15° C. for 4 hours. Thereafter, 1.5 ml of ethyl acetate was added to the reaction solution to terminate the reaction, and extraction was carried out. Then, extraction was carried out again with 0.75 ml of ethyl acetate. The obtained ethyl acetate phase was solidified using an evaporator, and the residue was then dissolved in 200 μl of methanol. Thereafter, progesterone was detected by HPLC analysis. […] In particular, when the cell-free extract was conversed at 20° C. for 140 hours, CYP204A1 maintained 47% of its activity and CYPSS maintained 39% of its activity.

B1: Sphingomonas subterranea NBRC16086 P450scc CYPSS204A (CYPSS), wild type, SEQ ID NO: 2 (Novosphingobium subterraneum) (protein)
chain: MASAAAGADGLPLLDGGVPLLGHLAQFFRDPVSVLKRGYRSKGRLFAMNFMGQRMNVMLGPEHNRFFFEETDKLLSIRESMPFFLKMFSPEFYSFAEMDEYLRQRAIIMPRFKAASMKQYVPVMVEESLNLVERLGEEGEFDLIPTLGPVVMDIAAHSFMGREFHEKLGHEFFELFRDFSGGMEFVLPLWLPTPKMVKSQRAKKKLHAILQSWIDKRRASPLDPPDFFQTMIETKYPDGRAVPDEIIRHLILLLVWAGHETTAGQVSWALADLLQNPGYQQVLREEVASLLGGSDGRALGWEQAVAMEKMDLALRETERLHPVAYMLSRKASADIERDGYRIRKGEFVLLAPSVSHRMEETFRNADAYDPERFNPQNPDAQIESNSLIGFGGGVHRCAGVNFARMEMKVLVAILLQNFDMELIDEVRPIAGASTYWPAQPCRVRYKRRKLDGAGGSADVAALAKAAGCPAHA
Molecule B1 has a Specific activity ([1]; KPB pH 6.2) of 0 g/h/mol, a Specific activity ([1]; KPB pH 6.7) of 19 g/h/mol and a Specific activity ([1]; KPB pH 7.1) of 21 g/h/mol. For the same molecule, the Specific activity ([1]; KPB pH 7.4) was 0 g/h/mol, the Specific activity ([1]; KPB pH 7.9) was 0 g/h/mol and the Specific activity ([1]; TES pH 6.6) was 0 g/h/mol. For the same molecule, the Specific activity ([1]; TES pH 6.8) was 16 g/h/mol, the Specific activity ([1]; TES pH 7.3) was 76 g/h/mol and the Specific activity ([1]; TES pH 7.5) was 165 g/h/mol. The Specific activity ([1]; TES pH 8.0) was 168 g/h/mol, the Specific activity ([1]; Tris-HCl pH 7.5) was 301 g/h/mol and the Specific activity ([1]; Tris-HCl pH 8.2) was 269 g/h/mol. The Specific activity ([1]; Tris-HCl pH 8.7) was 40 g/h/mol, the “optimum pH (pH of highest activity)” value ([1]; conversion of 4-cholesten-3-one to progesterone) was 7.5 and the Relative activity ([2]; AcB pH 6.0) was 37%. For the same molecule, the “Activity 140 hr” value ([2]; AcB pH 6.0, conserved at 6° C. for 140 hours) was 2.7 µg/mL, the “Activity 0 hr” value ([2]; AcB pH 6.0) was 7.3 µg/mL and the Relative activity ([2]; KPB pH 6.7) was 61%. For the same molecule, the “Activity 140 hr” value ([2]; KPB pH 6.7, conserved at 6° C. for 140 hours) was 4.3 µg/mL, the “Activity 0 hr” value ([2]; KPB pH 6.7) was 7.1 µg/mL and the Relative activity ([2]; KPB pH 7.2) was 73%. The “Activity 140 hr” value ([2]; KPB pH 7.2, conserved at 6° C. for 140 hours) was 5.3 µg/mL, the “Activity 0 hr” value ([2]; KPB pH 7.2) was 7.3 µg/mL and the Relative activity ([2]; KPB pH 7.6) was 85%. For the same molecule, the “Activity 140 hr” value ([2]; KPB pH 7.6, conserved at 6° C. for 140 hours) was 5.5 µg/mL, the “Activity 0 hr” value ([2]; KPB pH 7.6) was 6.5 µg/mL and the “pH at which most stable” value ([2]; KPB, conserved at 6° C. for 140 hours) was 7.6. For the same molecule, the Relative activity ([2]; TES pH 7.5) was 71%, the “Activity 140 hr” value ([2]; TES pH 7.5, conserved at 6° C. for 140 hours) was 5.2 µg/mL and the “Activity 0 hr” value ([2]; TES pH 7.5) was 7.3 µg/mL. The Relative activity ([2]; Tris pH 7.4) was 63%, the “Activity 140 hr” value ([2]; Tris pH 7.4, conserved at 6° C. for 140 hours) was 5 µg/mL and the “Activity 0 hr” value ([2]; Tris pH 7.4) was 8 µg/mL. The Relative activity ([2]; Tris pH 8.1) was 65%, the “Activity 140 hr” value ([2]; Tris pH 8.1, conserved at 6° C. for 140 hours) was 4.5 µg/mL and the “Activity 0 hr” value ([2]; Tris pH 8.1) was 6.9 µg/mL. For the same molecule, the Relative activity ([2]; Tris pH 8.9) was 51%, the “Activity 140 hr” value ([2]; Tris pH 8.9, conserved at 6° C. for 140 hours) was 3.7 µg/mL and the “Activity 0 hr” value ([2]; Tris pH 8.9) was 7.3 µg/mL. The “Activity 140 hr” value ([3]; conserved at 6° C. for 140 hours) was 11.6 µg/mL, the Relative activity ([3]; conserved at 6° C.) was 81% and the “Activity 140 hr” value ([3]; conserved at 10° C. for 140 hours) was 10.5 µg/mL. The Relative activity ([3]; conserved at 10° C.) was 73%, the “Activity 140 hr” value ([3]; conserved at 20° C. for 140 hours) was 5.6 µg/mL and the “Activity 140 hr” value ([3]; conserved at 30° C. for 140 hours) was 1 µg/mL. For the same molecule, the Relative activity ([3]; conserved at 30° C.) was 7%, the “Activity 140 hr” value ([3]; conserved at 37° C. for 140 hours) was 0 µg/mL and the Relative activity ([3]; conserved at 37° C.) was 0%. For the same molecule, the “Activity 140 hr” value ([3]; conserved at 45° C. for 140 hours) was 0 µg/mL, the Relative activity ([3]; conserved at 45° C.) was 0% and the “Activity 0 hr” value ([3]; enzyme protein solution before conservation, reaction 15° C., 4 hours) was 14.4 µg/mL.
